Reference: PMC4496087

Key:
[1] = target: Wild type CCR5, endogenous on human monocyte-derived macrophages (human (endogenous in monocyte-derived macrophages)) (UniProt P51681)
[2] = target: Wild type CCR5, endogenous on human monocyte-derived macrophages (human (endogenous in monocyte-derived macrophages)), P51681; assay: radioligand binding; competition: human macrophages (membranes) pretreated with different amounts of CCR5-T4L or CCL5, or CCL5 plus CCR5-T4L; specific binding of 0.3 nmol/L [125I]-CCL5, 2 h at 37°C, unbound ligand removed through a 10% sucrose/PBS cushion, gamma counting; conditions: remark: other sources report otherwise

| EC50 [2] [nM] | Molecule | [35S]GTPγS binding to membranes of human MDM (G-protein activation), EC50 [1] [nM] |
| --- | --- | --- |
|  | Soluble recombinant CCR5-T4L protein (receptor) | 5460 |
| 0.046 | Chemokine (C-C motif) ligand 5 (CCL5), unlabelled, P13501 24-91 (ligand) SPYSSDTTPCCFAYIARPLPRAHIKEYFYTSGKCSNPAVVFVTRKNRQVCANPEKKWVREYINSLEMS |  |
